Laboratory results published in publication PMC9162458 (2022).
Read-outs that look alike come from different tables or passages of the source. Ends that are not written are not given here.

B1: LiRAD51^ATPase (Leishmania infantum RAD51 ATPase domain, residues 134–386) (domain or fragment)
chain: EIIMVTTGSREVDKLLGGGIETGSITELFGEFRTGKTQLCHTLCVTCQLPISQGGAEGMALYIDTEGTFRPERLVAVAARYGLDPEDVLANVACARAFNTDHQQQLLLQASAMMAENRFALIVVDSATALYRTDYSGRNELAARQMHLGKFLRSLHNLAEEYGVAVVVTNQVVANVDGSAQMFQADSKKPIGGHIMAHASTTRLSLRKGRGEQRIIKVYDSPCLAEAEAIFGIYDDGVGDARD

Assays:
LiBRC1.12 = experiment: FP
LiBRC1.5 = experiment: FP
LiBRC1.4 = experiment: FP
LiBRC1.6 = experiment: FP
[1] = biological target: B1; experiment: FP
[2] = biological target: B1; experiment: ITC
[3] = biological target: B1; experiment: FP
[4] = biological target: B1; experiment: FP

B1
Kd (LiBRC1.12): > 124000 nM | Kd (LiBRC1.5): 380 nM | Kd (LiBRC1.4): 410 nM | Kd (LiBRC1.6): 1090 nM

LVPTLFSTASGKPVTVRRESLQKVA (domain or fragment, not fully specified (N-terminus); also: GB1 fusion) [LiBRC1.8 (C-terminal truncation of LiBRC1, Glu133 also removed, GB1 fusion)]
IC50 [1]: 8800 nM

LVPTLFSTASGKPVTVRRESLQKVAE (domain or fragment, not fully specified (N-terminus); also: GB1 fusion) [LiBRC1.7 (C-terminal truncation of LiBRC1, residues up to Arg134 removed, GB1 fusion)]
IC50 [1]: 1990 nM

GSLVPTLFSTASGKPVTVRRESLQKVAERLGDLAA [LiBRC1 free peptide]
Ka [2]: 1.54e+06 M⁻¹

LVPTLFSTASGKPVTVRRESLQK (domain or fragment, not fully specified (N-terminus); also: GB1 fusion) [LiBRC1.10 (C-terminal truncation of LiBRC1, Val131 also removed, GB1 fusion)]
IC50 [1]: 41000 nM

LVPTLFSTASGKPVTVRRESLQKVAERLGDLAAPDME (domain or fragment, not fully specified (N-terminus); also: GB1 fusion) [LiBRC1.2 (LiBRC1 with extended termini, GB1 fusion)]
IC50 [1]: 1200 nM

AAAPPLVPTLFSTASGKPVTVRRESLQKVAERLGDLAA (domain or fragment, not fully specified (N-terminus); also: GB1 fusion) [LiBRC1.3 (LiBRC1 with extended termini, GB1 fusion)]
IC50 [1]: 1670 nM

GB1-LVPTLFSTASGKPVTVRRESLQKVAERLGDLAA-His8 (domain or fragment) [GB1-LiBRC1-His8 (BRC repeat 1 of Leishmania infantum BRCA2 fused to GB1)]
IC50 [3]: 1570 nM

LVPTLFSTASGKPVTVRRESLQKV (domain or fragment, not fully specified (N-terminus, C-terminus); also: GB1 fusion) [LiBRC1.9 (C-terminal truncation of LiBRC1, GB1 fusion)]
IC50 [1]: 11000 nM | Kd [4]: 2630 nM

GB1-RVPTLFETGRGKAVTVQKRSLDKAEASMDSLEA-His8 (domain or fragment) [GB1-LiBRC2-His8 (BRC repeat 2 of Leishmania infantum BRCA2 fused to GB1)]
IC50 [3]: 55000 nM

LVPTLFSTASGKPVTVRRESLQ (domain or fragment, not fully specified (N-terminus); also: GB1 fusion) [LiBRC1.11 (C-terminal truncation of LiBRC1 up until Gln129, GB1 fusion)]
IC50 [1]: 36500 nM
